In patent US20050118674A1, “Engineering of Controlled Deamidation Rates in Peptides, Proteins, and Similar Structures” (priority 2003, published 2005):

Test: First-order nonenzymatic deamidation of pentapeptides in Tris buffer
Format: physicochemical
Conditions: pH 7.4, 37.0° C., 0.15 M Tris HCl; Asn pentapeptides
Summary of the method: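 Pentapeptides containing Asn or Gln in varied flanking sequences incubated at 37° C., pH 7.4, 0.15 M Tris buffer; first-order deamidation rates measured. Some Asn values estimated from remaining data; many Gln values derived from surface fitting rather than measured.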

Substance | First-Order Deamidation Halftimes of GlyXxxAsnYyyGly [days]
GlyIleAsnAspGly (GINDG; printed: GlyIleAsnAspGly) | 33.8
GlyIleAsnCysGly (GINCG; printed: GlyIleAsnCysGly) | 52.7
GlyIleAsnGluGly (GINEG; printed: GlyIleAsnGluGly) | 58.6
GlyIleAsnGlyGly (GINGG; printed: GlyIleAsnGlyGly) | 1.26
GlyIleAsnHisGly (GINHG; printed: GlyIleAsnHisGly) | 11.5
GlyIleAsnIleGly (GINIG; printed: GlyIleAsnIleGly) | 384
GlyIleAsnLeuGly (GINLG; printed: GlyIleAsnLeuGly) | 154
GlyIleAsnLysGly (GINKG; printed: GlyIleAsnLysGly) | 64.4
GlyIleAsnMetGly (GINMG; printed: GlyIleAsnMetGly) | 58.8
GlyIleAsnPheGly (GINFG; printed: GlyIleAsnPheGly) | 61.5
GlyIleAsnProGly (GINPG; printed: GlyIleAsnProGly) | 11600
GlyIleAsnSerGly (GINSG; printed: GlyIleAsnSerGly) | 14.5
GlyIleAsnThrGly (GINTG; printed: GlyIleAsnThrGly) | 46.3
GlyIleAsnTrpGly (GINWG; printed: GlyIleAsnTrpGly) | 86.7
GlyIleAsnTyrGly (GINYG; printed: GlyIleAsnTyrGly) | 79.3
GlyIleAsnValGly (GINVG; printed: GlyIleAsnValGly) | 295
GlyLeuAsnAlaGly (GLNAG; printed: GlyLeuAsnAlaGly) | 25.1
GlyLeuAsnAmCysGly | 33.6
GlyLeuAsnArgGly (GLNRG; printed: GlyLeuAsnArgGly) | 62.1
GlyLeuAsnAspGly (GLNDG; printed: GlyLeuAsnAspGly) | 32.1
GlyLeuAsnCysGly (GLNCG; printed: GlyLeuAsnCysGly) | 53.5
GlyLeuAsnGluGly (GLNEG; printed: GlyLeuAsnGluGly) | 56.7

Substance | First-Order Deamidation Halftimes of GlyXxxAsnYyyGly [days]
GlyLeuAsnGlyGly (GLNGG; printed: GlyLeuAsnGlyGly) | 1.08
GlyLeuAsnHisGly (GLNHG; printed: GlyLeuAsnHisGly) | 10.7
GlyLeuAsnIleGly (GLNIG; printed: GlyLeuAsnIleGly) | 391
GlyLeuAsnLeuGly (GLNLG; printed: GlyLeuAsnLeuGly) | 155
GlyLeuAsnLysGly (GLNKG; printed: GlyLeuAsnLysGly) | 60.1
GlyLeuAsnMetGly (GLNMG; printed: GlyLeuAsnMetGly) | 62.6
GlyLeuAsnPheGly (GLNFG; printed: GlyLeuAsnPheGly) | 72.4
GlyLeuAsnProGly (GLNPG; printed: GlyLeuAsnProGly) | 10500
GlyLeuAsnSerGly (GLNSG; printed: GlyLeuAsnSerGly) | 16.7
GlyLeuAsnThrGly (GLNTG; printed: GlyLeuAsnThrGly) | 46.1
GlyLeuAsnTrpGly (GLNWG; printed: GlyLeuAsnTrpGly) | 74.5
GlyLeuAsnTyrGly (GLNYG; printed: GlyLeuAsnTyrGly) | 75.7
GlyLeuAsnValGly (GLNVG; printed: GlyLeuAsnValGly) | 294
GlyLysAsnAlaGly (GKNAG; printed: GlyLysAsnAlaGly) | 23.6
GlyLysAsnAmCysGly | 36.5
GlyLysAsnArgGly (GKNRG; printed: GlyLysAsnArgGly) | 57.4
GlyLysAsnAspGly (GKNDG; printed: GlyLysAsnAspGly) | 34.0
GlyLysAsnCysGly (GKNCG; printed: GlyLysAsnCysGly) | 49.0
GlyLysAsnGluGly (GKNEG; printed: GlyLysAsnGluGly) | 72.5
GlyLysAsnGlyGly (GKNGG; printed: GlyLysAsnGlyGly) | 1.02
GlyLysAsnHisGly (GKNHG; printed: GlyLysAsnHisGly) | 10.5
GlyLysAsnIleGly (GKNIG; printed: GlyLysAsnIleGly) | 313

Same assay, conditions: pH 7.4, 37.0 ° C., 0.15 M Tris HCl; Gln pentapeptides; 52 values measured, rest derived from surface fitting

Substance | First-Order Deamidation Halftimes of GlyXxxGlnYyyGly [days]
GlyIleGlnAlaGly (GIQAG; printed: GlyIleGlnAlaGly) | 6200
GlyIleGlnArgGly (GIQRG; printed: GlyIleGlnArgGly) | 7200
GlyIleGlnAspGly (GIQDG; printed: GlyIleGlnAspGly) | 8100
GlyIleGlnCysGly (GIQCG; printed: GlyIleGlnCysGly) | 2000
GlyIleGlnGluGly (GIQEG; printed: GlyIleGlnGluGly) | 7700
GlyIleGlnGlyGly (GIQGG; printed: GlyIleGlnGlyGly) | 620
GlyIleGlnHisGly (GIQHG; printed: GlyIleGlnHisGly) | 6100
GlyIleGlnIleGly (GIQIG; printed: GlyIleGlnIleGly) | 6500
GlyIleGlnLeuGly (GIQLG; printed: GlyIleGlnLeuGly) | 6300
GlyIleGlnLysGly (GIQKG; printed: GlyIleGlnLysGly) | 6100
GlyIleGlnMetGly (GIQMG; printed: GlyIleGlnMetGly) | 5100
GlyIleGlnPheGly (GIQFG; printed: GlyIleGlnPheGly) | 8100
GlyIleGlnProGly (GIQPG; printed: GlyIleGlnProGly) | 10000
GlyIleGlnSerGly (GIQSG; printed: GlyIleGlnSerGly) | 5800
GlyIleGlnThrGly (GIQTG; printed: GlyIleGlnThrGly) | 5300
GlyIleGlnTrpGly (GIQWG; printed: GlyIleGlnTrpGly) | 16000
GlyIleGlnTyrGly (GIQYG; printed: GlyIleGlnTyrGly) | 12000
GlyIleGlnValGly (GIQVG; printed: GlyIleGlnValGly) | 7100

Substance | First-Order Deamidation Halftimes of GlyXxxGlnYyyGly [days]
GlyLeuGlnAlaGly (GLQAG; printed: GlyLeuGlnAlaGly) | 6000
GlyLeuGlnArgGly (GLQRG; printed: GlyLeuGlnArgGly) | 7200
GlyLeuGlnAspGly (GLQDG; printed: GlyLeuGlnAspGly) | 7800
GlyLeuGlnCysGly (GLQCG; printed: GlyLeuGlnCysGly) | 2000
GlyLeuGlnGluGly (GLQEG; printed: GlyLeuGlnGluGly) | 7400
GlyLeuGlnGlyGly (GLQGG; printed: GlyLeuGlnGlyGly) | 670
GlyLeuGlnHisGly (GLQHG; printed: GlyLeuGlnHisGly) | 6100
GlyLeuGlnIleGly (GLQIG; printed: GlyLeuGlnIleGly) | 6500
GlyLeuGlnLeuGly (GLQLG; printed: GlyLeuGlnLeuGly) | 6300
GlyLeuGlnLysGly (GLQKG; printed: GlyLeuGlnLysGly) | 6100
GlyLeuGlnMetGly (GLQMG; printed: GlyLeuGlnMetGly) | 4800
GlyLeuGlnPheGly (GLQFG; printed: GlyLeuGlnPheGly) | 8000
GlyLeuGlnProGly (GLQPG; printed: GlyLeuGlnProGly) | 10000
GlyLeuGlnSerGly (GLQSG; printed: GlyLeuGlnSerGly) | 5800
GlyLeuGlnThrGly (GLQTG; printed: GlyLeuGlnThrGly) | 5300
GlyLeuGlnTrpGly (GLQWG; printed: GlyLeuGlnTrpGly) | 16000
GlyLeuGlnTyrGly (GLQYG; printed: GlyLeuGlnTyrGly) | 12000
GlyLeuGlnValGly (GLQVG; printed: GlyLeuGlnValGly) | 6800
